{
  "source": "patent US20190071517A1",
  "about": "(KANAGAWA PREFECTURAL HOSPITAL ORGANIZATION, published 2019)",
  "binders": {"B1": {"name": "SKM9-2 antibody (antibody, mouse IgG1, kappa, V domains shown)", "VH": "QVQLQQPGAELVRPGASVKLSCKASGFSFTTYWITWVKQRPGQGLEWIGMIHPSDSETRLSQTFKDKATLTVDKSSNTAYMQFSSPTSEDSAVYYCVRDFDVWGAGTTVTVSS", "VL": "DVLMTQTPLSLPVSLGDQASISCRSSQNIVHNNGNTYLGWYLQKPGQSPKLLIFKVSNRFSGVPDRFSGSGSGTDFTLKISRVEAEDLGVYYCFQGSHIPRTFGGGTRLEIKR", "notes": "also called monoclonal antibody produced from the SKM9-2 hybridoma"}},
  "key": {"[1]": {"target": "T1, HEG1 2kb (human, UniProt Q9ULI3 671-1381)", "T1 construct": "Inserted into pFLAG-CMV1, expressed in ACC-MESO-1; also called fragment 2kb", "T1 sequence": "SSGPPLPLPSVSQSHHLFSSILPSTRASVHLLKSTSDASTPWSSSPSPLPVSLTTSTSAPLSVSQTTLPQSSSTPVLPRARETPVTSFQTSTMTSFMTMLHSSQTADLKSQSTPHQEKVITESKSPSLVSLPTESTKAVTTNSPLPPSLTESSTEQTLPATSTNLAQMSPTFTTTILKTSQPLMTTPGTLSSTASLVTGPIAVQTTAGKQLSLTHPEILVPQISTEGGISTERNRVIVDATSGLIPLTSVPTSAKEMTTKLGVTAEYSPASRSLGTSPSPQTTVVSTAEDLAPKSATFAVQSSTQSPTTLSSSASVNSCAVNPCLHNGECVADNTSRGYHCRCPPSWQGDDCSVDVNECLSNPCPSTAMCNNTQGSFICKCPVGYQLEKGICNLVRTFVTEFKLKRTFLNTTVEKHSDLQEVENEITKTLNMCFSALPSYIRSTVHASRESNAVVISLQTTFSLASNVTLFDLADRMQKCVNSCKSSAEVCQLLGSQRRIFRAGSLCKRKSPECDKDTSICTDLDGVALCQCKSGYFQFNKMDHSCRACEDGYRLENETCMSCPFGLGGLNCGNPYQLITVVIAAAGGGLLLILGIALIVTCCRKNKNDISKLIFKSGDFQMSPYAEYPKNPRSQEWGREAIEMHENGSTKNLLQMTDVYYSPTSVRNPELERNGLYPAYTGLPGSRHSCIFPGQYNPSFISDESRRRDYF", "assay": "Western blot of ACC-MESO-1 cell lysate", "method": "(§1) Gene transfer was performed with HEG1 siRNA (H9106) (SEQ ID NOs: 40, 41) and human HEG1 for the mesothelioma cell line ACC-MESO-1, and the reactivity of the SKM9-2 was examined through Western blot analysis. A full length protein (HEG1 full length) or a fragment (HEG1 3kb, HEG1 2kb, or HEG1 1kb) of the human HEG1 was used. The full length human HEG1 protein, a protein having the amino acid sequence set forth in SEQ ID NO: 35, was obtained through inserting a base sequence set forth in SEQ ID NO: 34 into pFLAG-CMV1 (Sigma-Aldrich Japan K.K.) to obtain a plasmid, transforming the plasmid, and allowing the mesothelioma cell line to express the plasmid. Fragment HEG1 3kb was obtained through inserting a fragment corresponding to a sequence from position 285, leucine, to position 1387, phenylalanine, of SEQ ID NO: 35 into pFLAG-CMV1 (Sigma-Aldrich Japan K.K.) in an in-frame manner, and allowing the mesothelioma cell line to express the resultant. HEG1 2kb and HEG1 1kb were obtained through allowing the mesothelioma cell line to express products similarly obtained from a fragment corresponding to a sequence from position 677, leucine, to position 1387, phenylalanine, of SEQ ID NO: 35 and a fragment corresponding to a sequence from position 992, valine, to position 1387, phenylalanine, of SEQ ID NO: 35, respectively. Each cell lysate was analyzed through Western blot with the SKM9-2 antibody."}, "[2]": {"target": "T2, HEG1 3kb (human, UniProt Q9ULI3 285-1381)", "T2 construct": "Inserted in frame into pFLAG-CMV1, expressed in ACC-MESO-1; what the vector adds is not described; also called fragment 3kb", "T2 sequence": "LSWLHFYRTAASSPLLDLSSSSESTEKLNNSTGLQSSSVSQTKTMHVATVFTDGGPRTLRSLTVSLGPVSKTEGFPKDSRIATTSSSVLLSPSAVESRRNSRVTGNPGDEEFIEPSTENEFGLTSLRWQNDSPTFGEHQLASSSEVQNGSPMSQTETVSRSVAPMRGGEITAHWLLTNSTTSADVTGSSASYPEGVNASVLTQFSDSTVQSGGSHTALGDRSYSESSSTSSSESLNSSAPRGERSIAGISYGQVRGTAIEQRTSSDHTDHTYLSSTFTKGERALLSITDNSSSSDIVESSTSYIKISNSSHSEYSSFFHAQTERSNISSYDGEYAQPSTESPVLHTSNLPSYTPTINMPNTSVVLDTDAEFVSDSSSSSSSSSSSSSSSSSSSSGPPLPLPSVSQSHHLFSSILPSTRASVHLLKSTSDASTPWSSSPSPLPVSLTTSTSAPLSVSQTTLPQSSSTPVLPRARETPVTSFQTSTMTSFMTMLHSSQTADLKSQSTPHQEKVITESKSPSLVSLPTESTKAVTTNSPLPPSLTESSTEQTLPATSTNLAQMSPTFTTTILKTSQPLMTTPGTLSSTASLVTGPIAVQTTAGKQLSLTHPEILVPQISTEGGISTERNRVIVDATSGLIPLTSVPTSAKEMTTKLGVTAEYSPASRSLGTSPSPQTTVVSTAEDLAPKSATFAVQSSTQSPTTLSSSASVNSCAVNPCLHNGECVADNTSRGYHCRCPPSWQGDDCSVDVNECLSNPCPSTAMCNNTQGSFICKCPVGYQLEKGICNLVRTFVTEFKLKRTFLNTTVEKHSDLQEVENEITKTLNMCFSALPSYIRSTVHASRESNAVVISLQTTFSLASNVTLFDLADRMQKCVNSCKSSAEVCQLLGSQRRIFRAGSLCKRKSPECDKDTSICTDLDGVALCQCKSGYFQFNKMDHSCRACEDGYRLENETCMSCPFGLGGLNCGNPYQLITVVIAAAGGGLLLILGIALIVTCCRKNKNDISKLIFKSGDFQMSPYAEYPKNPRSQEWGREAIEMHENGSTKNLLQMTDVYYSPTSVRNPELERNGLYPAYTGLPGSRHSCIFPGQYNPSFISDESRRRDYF", "assay": "Western blot of ACC-MESO-1 cell lysate", "method": "as §1"}, "[3]": {"target": "T3, HEG1 full length (full length human HEG1 protein expressed in ACC-MESO-1) (human, UniProt Q9ULI3 30-1381, limits assumed)", "T3 construct": "Full length; expressed from pFLAG-CMV1 in ACC-MESO-1 with the endogenous HEG1 knocked down; cell lysate in Western blot; What the vector adds is not described; also called full length protein", "T3 sequence": "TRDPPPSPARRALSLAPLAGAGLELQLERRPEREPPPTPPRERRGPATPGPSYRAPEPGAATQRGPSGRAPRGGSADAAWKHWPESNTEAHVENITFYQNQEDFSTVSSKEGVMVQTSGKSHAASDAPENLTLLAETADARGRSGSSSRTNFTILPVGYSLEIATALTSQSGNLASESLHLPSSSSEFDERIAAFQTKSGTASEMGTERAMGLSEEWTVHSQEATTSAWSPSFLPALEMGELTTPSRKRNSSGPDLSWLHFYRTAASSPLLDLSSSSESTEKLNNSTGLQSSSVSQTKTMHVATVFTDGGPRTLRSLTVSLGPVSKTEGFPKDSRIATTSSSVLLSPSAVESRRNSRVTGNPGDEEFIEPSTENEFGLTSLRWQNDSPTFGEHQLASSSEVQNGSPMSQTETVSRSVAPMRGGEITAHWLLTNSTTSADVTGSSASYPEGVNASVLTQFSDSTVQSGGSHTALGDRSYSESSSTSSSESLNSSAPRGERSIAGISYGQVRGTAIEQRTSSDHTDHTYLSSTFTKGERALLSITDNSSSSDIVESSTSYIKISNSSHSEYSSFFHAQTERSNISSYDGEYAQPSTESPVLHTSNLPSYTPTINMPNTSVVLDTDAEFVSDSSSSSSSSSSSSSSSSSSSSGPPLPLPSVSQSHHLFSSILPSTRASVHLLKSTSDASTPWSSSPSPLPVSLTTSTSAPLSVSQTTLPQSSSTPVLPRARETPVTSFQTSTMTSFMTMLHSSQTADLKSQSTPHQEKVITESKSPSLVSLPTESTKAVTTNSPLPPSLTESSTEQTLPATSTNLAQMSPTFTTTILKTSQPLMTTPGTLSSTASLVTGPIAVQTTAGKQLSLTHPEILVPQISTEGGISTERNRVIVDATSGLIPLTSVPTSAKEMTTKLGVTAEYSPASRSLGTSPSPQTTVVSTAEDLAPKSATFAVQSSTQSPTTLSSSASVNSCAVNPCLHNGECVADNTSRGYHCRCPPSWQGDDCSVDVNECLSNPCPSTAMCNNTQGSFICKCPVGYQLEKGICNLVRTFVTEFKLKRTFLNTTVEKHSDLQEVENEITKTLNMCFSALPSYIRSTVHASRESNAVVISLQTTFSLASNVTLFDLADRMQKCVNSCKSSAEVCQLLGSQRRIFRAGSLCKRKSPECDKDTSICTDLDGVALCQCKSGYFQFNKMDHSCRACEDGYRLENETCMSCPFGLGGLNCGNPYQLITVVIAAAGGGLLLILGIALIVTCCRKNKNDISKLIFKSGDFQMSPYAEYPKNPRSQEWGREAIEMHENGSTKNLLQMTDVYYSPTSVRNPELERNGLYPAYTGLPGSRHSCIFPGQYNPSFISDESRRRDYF", "assay": "Western blot of ACC-MESO-1 cell lysate", "method": "as §1"}, "[4]": {"target": "T4, HEG1 1kb (human, UniProt Q9ULI3 986-1381)", "T4 construct": "Inserted into pFLAG-CMV1, expressed in ACC-MESO-1; also called fragment 1kb", "T4 sequence": "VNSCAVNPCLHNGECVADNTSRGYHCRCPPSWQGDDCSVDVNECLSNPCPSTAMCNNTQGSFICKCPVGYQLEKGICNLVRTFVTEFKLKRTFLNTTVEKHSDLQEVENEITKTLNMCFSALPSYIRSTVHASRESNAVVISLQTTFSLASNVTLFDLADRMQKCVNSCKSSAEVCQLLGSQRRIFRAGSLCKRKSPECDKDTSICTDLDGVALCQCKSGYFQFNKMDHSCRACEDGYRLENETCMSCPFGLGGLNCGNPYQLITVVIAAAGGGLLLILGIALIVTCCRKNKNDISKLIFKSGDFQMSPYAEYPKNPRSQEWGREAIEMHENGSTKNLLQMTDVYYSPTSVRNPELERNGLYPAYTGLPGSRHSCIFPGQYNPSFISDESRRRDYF", "assay": "Western blot of cell lysate", "method": "as §1, with “HEG1 2kb and HEG1 1kb were obtained through allowing the mesothelioma cell line to express products similarly obtained from a fragment corresponding to a sequence from position 677, leucine, to position 1387, phenylalanine, of SEQ ID NO: 35 and a fragment corresponding to a sequence from position 992, valine, to position 1387, phenylalanine, of SEQ ID NO: 35, respectively.” left out"}},
  "data": [
    {"binder": "B1", "values": [
      {"measurement": "binding result", "setting": "[1]", "result": "binds"},
      {"measurement": "binding result", "setting": "[2]", "result": "binds"},
      {"measurement": "binding result", "setting": "[3]", "result": "binds"},
      {"measurement": "binding result", "setting": "[4]", "result": "no binding"}
    ]}
  ]
}
